# Data: patent US20170129940A1 (INSTITUTE FOR RESEARCH IN BIOMEDICINE, published 2017)
# Legend:
# [1] = molecular target: T1, hCMV gB (expressed in HEK293T cells) (human cytomegalovirus, UniProt P06473 32-906); test: cell-based or functional assay
# [2] = molecular target: T1, hCMV gB (expressed in HEK293T cells); test: cell-based or functional assay; remark: listed apart in the source
# [3] = molecular target: T1, hCMV gB (expressed in HEK293T cells); test: competitor: 4H9-biotin; cell staining
# [4] = molecular target: T1, hCMV gB (expressed in HEK293T cells); test: competitor: 5F1-biotin; cell staining
# [5] = molecular target: T1, hCMV gB (expressed in HEK293T cells); test: competitor: 6B4-biotin; cell staining
# [6] = molecular target: T1, hCMV gB (expressed in HEK293T cells); test: competitor: 7H3-biotin; cell staining
# [7] = molecular target: T1, hCMV gB (expressed in HEK293T cells); test: competitor: 10C6-biotin; cell staining
# [8] = molecular target: T1, hCMV gB (expressed in HEK293T cells); test: competitor: 2B11-biotin; cell staining
# [9] = molecular target: T2, hCMV UL130 + UL131A (co-expressed in HEK293T cells) (human cytomegalovirus, UniProt P16772 1-214; F5HET4 19-129); test: cell-based or functional assay
# [10] = molecular target: T2, hCMV UL130 + UL131A (co-expressed in …); test: cell-based or functional assay; remark: listed apart in the source
# [11] = molecular target: T3, hCMV gH (expressed in HEK293T cells) (human cytomegalovirus, UniProt P12824 24-743); test: cell-based or functional assay
# [12] = molecular target: T3, hCMV gH (expressed in HEK293T cells); test: cell-based or functional assay; remark: listed apart in the source
# [13] = molecular target: T1, hCMV gB (expressed in HEK293T cells); test: cell-based or functional assay; remark: listed apart in the source
# T1 sequence (P06473 32-906 limits assumed): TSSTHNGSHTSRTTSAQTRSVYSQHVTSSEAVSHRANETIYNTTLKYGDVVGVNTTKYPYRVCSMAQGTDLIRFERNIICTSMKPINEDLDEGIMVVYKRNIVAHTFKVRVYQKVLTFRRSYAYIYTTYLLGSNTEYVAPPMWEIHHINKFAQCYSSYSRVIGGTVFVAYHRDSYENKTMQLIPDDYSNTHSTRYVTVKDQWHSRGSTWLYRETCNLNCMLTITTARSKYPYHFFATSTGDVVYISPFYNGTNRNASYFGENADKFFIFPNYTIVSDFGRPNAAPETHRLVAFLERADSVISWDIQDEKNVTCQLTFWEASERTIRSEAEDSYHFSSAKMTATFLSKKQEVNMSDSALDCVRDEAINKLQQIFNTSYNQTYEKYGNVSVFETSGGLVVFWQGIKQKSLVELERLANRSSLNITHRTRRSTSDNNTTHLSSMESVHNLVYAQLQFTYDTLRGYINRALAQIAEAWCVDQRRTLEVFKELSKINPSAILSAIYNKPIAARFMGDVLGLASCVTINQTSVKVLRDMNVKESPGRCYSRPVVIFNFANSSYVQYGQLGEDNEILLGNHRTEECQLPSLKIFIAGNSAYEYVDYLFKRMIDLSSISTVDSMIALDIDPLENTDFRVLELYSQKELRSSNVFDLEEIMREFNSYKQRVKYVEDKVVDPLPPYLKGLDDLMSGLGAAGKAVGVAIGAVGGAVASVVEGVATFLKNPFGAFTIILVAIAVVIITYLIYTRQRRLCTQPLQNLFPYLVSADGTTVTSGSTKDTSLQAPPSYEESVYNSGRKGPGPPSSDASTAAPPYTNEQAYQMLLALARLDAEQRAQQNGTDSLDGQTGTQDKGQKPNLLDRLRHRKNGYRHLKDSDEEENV
binder,measurement,setting,value
"4H9 (antibody, V domains shown, human IgG; also called 4H9-biotin) VH: AVQLVESGGGLVRPGGSLRLSCAASGFTFSSHEMHWVRQAPGKGLEWLSYIDFTGSIIYYADSVRGRFTISRDNTKKSLFLQMNSLRDEDTALYYCARDGGRWGTSWYYFDYWGQGVLVTVSS VL: QSVLTQPPSVSGAPGQRVTITCTGSSSNFGAGYDGHWYQQLPGTAPKLLIYGSNRPSGVPDRFSGSKSGTSVSLAITGLQADDEADYYCQSYDSSLSAWVFGGGTKLTVL",50% Neutralization ARPE,[1],≤ 2 µg/mL
same,50% Neutralization MRC-9,[1],≤ 2 µg/mL
same,90% Neutralization ARPE,[2],0.4 µg/mL
same,90% Neutralization MRC-9,[2],10 µg/mL
same,Inhibition of binding (%),[3],100%
same,Inhibition of binding (%),[4],100%
same,Inhibition of binding (%),[5],0%
same,Inhibition of binding (%),[6],0%
same,Inhibition of binding (%),[7],100%
same,Inhibition of binding (%),[8],100%
"10P3 (antibody, V domains shown) VH: EVQLVESGGGLVRPGGSLRLSCAASGFTFHNYRMNWVRQAPGKGLEWVANIKQDGSEKSYVDSVRGRFTTSRDNSKNSLYLQINSLRAEDTAVYYCARGEGYTYGVVYSYSAMDVWGQGTTVIVSS VL: SYELTQPPSVSVSPGQTARITCSGNVLPNQYASWYQQKPGQAPVLVIYKDTERPSGIPGRFSGSSSGTTVTLTISGVQAEDEADYYCQSADSSGADYVFGTGTKVTVL",50% Neutralization ARPE,[9],< 0.001 µg/mL
same,50% Neutralization MRC-9,[9],> 2 µg/mL
same,90% Neutralization ARPE,[10],0.0025 µg/mL
same,90% Neutralization MRC-9,[10],> 10 µg/mL
"11B12 (antibody, V domains shown) VH: QMQLVQSGPQVKKPGTSVKVSCKASGFTFTSSAMQWVRQARGQRPEWIGWIVLGSGNTNYAQKFQERVTLTRDMSTATAYMELSSLRSEDTAVYYCAADRGRGGYNVYTYWGQGTLVAVSS VL: EIVMTQSPGTLSLSPGERATLSCRASQTISNTYVAWYQQKPGQAPRLLIYGASSRATGIPDRFSGSGSGTDFTLTIRRLEPEDFAVYYCQQNGQSPWTFGQGTNVEIK",50% Neutralization ARPE,[11],≤ 2 µg/mL
same,50% Neutralization MRC-9,[11],≤ 2 µg/mL
same,90% Neutralization ARPE,[12],1.2 µg/mL
same,90% Neutralization MRC-9,[12],3.5 µg/mL
"2B11 (antibody, V domains shown, human IgG; also called 2B11-biotin) VH: AVRLVESGGGLAQPGRSLRLSCQVSGFTFGSYEMNWVRQAPGKGLEWIAYIDFTGSTIYYADSVKGRFTISRNTARNSLYLQMNSLRVEDTAVYYCVRDAGRWGTSWYYFDYWGQGTRVTVSP VL: QSVLTQPPSVSGAPGQRVTISCTGISSNIGAGYDIHWYQQIPGKAPKLLVYGNNNRPSGVPDRFSGSKSGTSVSLAITGLQVEDEADYYCQSYDNSLNGWVFGGGTRLTVL",90% Neutralization ARPE,[2],0.2 µg/mL
same,90% Neutralization MRC-9,[2],0.75 µg/mL
same,Inhibition of binding (%),[3],100%
same,Inhibition of binding (%),[4],100%
same,Inhibition of binding (%),[5],0%
same,Inhibition of binding (%),[6],0%
same,Inhibition of binding (%),[7],100%
same,Inhibition of binding (%),[8],100%
"7H3 (antibody, V domains shown, human IgG; also called 7H3-biotin) VH: QVQLVQSGAEVKNPGASVKVSCKASGYTFTDYYIHWVRQAPGQGLEWMGWFNPNSGGTNFVQNFQGRVTMTRDTSISTAYMELSRLRSDDTAMYYCAKDSAKTASAYYGLNFFYYGMDVWGQGTTVTVSS VL: QSVLSQPPSASGTPGQRVTISCSGSSSNIGKNYVYWYQQVPGTAPKLLMFKNNQRPSGVPDRFSGSKSGTSASLAISGLRSEDEADYYCSAWDGSLSRPLFGGGTKVTVL",50% Neutralization ARPE,[1],> 2 µg/mL
same,50% Neutralization MRC-9,[1],≤ 2 µg/mL
same,90% Neutralization ARPE,[2],0.6 µg/mL
same,90% Neutralization MRC-9,[2],3 µg/mL
same,50% Neutralization BM-MSC,[13],2 µg/mL
same,50% Neutralization Mo-DC,[13],0.06 µg/mL
same,Inhibition of binding (%),[3],0%
same,Inhibition of binding (%),[4],0%
same,Inhibition of binding (%),[5],0%
same,Inhibition of binding (%),[6],100%
same,Inhibition of binding (%),[7],0%
same,Inhibition of binding (%),[8],0%
"10F7 (antibody, V domains shown) VH: EVQLVESGGGLVQPGRSLRLSCTASGFTFGDYAMSWFRQAPGKGLEWVGFIRSKAYGGTTEYAASVKGRFTISRDDSKSIAYLQMNSLKTEDTAVYYCTRASSLLWLLNPQPNFDYWGQGTLVTVSS VL: SYVLTQPPSVSVAPGQTARITCGGNNIGSNNVHWYQQKPGQAPVLVVYDDSDRPSGIPERFSGSNSGNTATLTISRVEAGDEADYYCQVWDSSSDHPVFGGGTKLTVL",50% Neutralization ARPE,[9],< 0.01 µg/mL
same,50% Neutralization MRC-9,[9],≤ 2 µg/mL
same,90% Neutralization ARPE,[10],0.002 µg/mL
same,90% Neutralization MRC-9,[10],> 10 µg/mL
"13H11 (antibody, V domains shown) VH: QVQLVQSGAEVKKPGASVKVSCKASGYTFTNYYIHWVRQAPGQGLEWMGIIHPSSGGTSYAQKFQGRVTMTRDTSTSTVSMDLSSLRSEDTAVYYCGRAFRILGLSDVFVNDWGQGTVVTVSS VL: DIQMTQSPSSLSASVGDRVTITCRASQGINNYLAWYQQKPGKVPKLLIYAASTLQSGVPSRFSGSGSGTAFTLTILSLQPEDVATYYCQKYNSAPFTFGPGTKVDIK",50% Neutralization ARPE,[11],< 0.01 µg/mL
same,50% Neutralization MRC-9,[11],≤ 2 µg/mL
same,90% Neutralization ARPE,[12],0.4 µg/mL
same,90% Neutralization MRC-9,[12],1.12 µg/mL
"3G16 (antibody, V domains shown) VH: QSALTQPASVSGSPGESITISCTGTISDVGAYNSVSWYQQHSGTAPELIIYDVTNRPAGVSSRFSGSKSGNTASLTISWLQSEDEAEYYCSSYTTSDTYVFGSGTQVTVL V domain: RAQLVQSAAEMKNPGASVKVSCEASGYTFTGYYVHWMRQAPGQGLEWMGWINPMTGATKSPQKFQGRVTMTRDTSTTATHIELTRLRSDDSAVFFCARGGPTSTRITGKRHFDLWGRGTLITVAS",50% Neutralization ARPE,[11],≤ 2 µg/mL
same,50% Neutralization MRC-9,[11],≤ 2 µg/mL
same,90% Neutralization ARPE,[12],0.3 µg/mL
same,90% Neutralization MRC-9,[12],1 µg/mL
"4I22 (antibody, V domains shown) VH: QVQLVESGGGVVQPGRSLRLSCVASGFTFSSYAMHWVRQAPGKGLEWVAVISYDGDNKFYADSVKGRFRISRDTSKNTLYLEMNSLRAADTAIYYCAREELVGLMPPYYNYGLDVWGQGTTVTVSS VL: QSVLTQPPSVSAAPGQKVTISCSGSNSNIGNNYVSWYQQLPGRAPKLLIYDNDHRPSGIPDRFSGSKSGTSATLVITGLQTGDEADYYCETWDTSLSAAVVFGGGTKLTVL",50% Neutralization ARPE,[9],< 0.01 µg/mL
same,50% Neutralization MRC-9,[9],> 2 µg/mL
same,90% Neutralization ARPE,[10],0.0015 µg/mL
same,90% Neutralization MRC-9,[10],> 10 µg/mL
"4N10 (antibody, V domains shown) VH: QVQLVQSGAEVKKPGSSVRVSCKASGGTFSSYVIIWVRQAPGQGLEWMGGVIPIFDTVNYAQKFQGRVTITADESTSTAYMELSSLKSEDTAVYYCARGILAYCGGDCYNTPYGMDVWGQGTTVTVSS VL: DIQMTQSPSILSASVGDRVTITCRASQSISSWLAWYQQKPGKAPKLLIYKASSLEIGVPSRISGSGSGTEFTLTISSLQPDDFATYYCQQYNSSWTFGQGTKVEIK",50% Neutralization ARPE,[9],< 0.001 µg/mL
same,50% Neutralization MRC-9,[9],≤ 2 µg/mL
same,90% Neutralization ARPE,[10],0.02 µg/mL
same,90% Neutralization MRC-9,[10],> 10 µg/mL
"8L13 (antibody, V domains shown) VH: QVQLLESGGGVVQPGRSLRLSCAASGFTFSNYGMHWVRQAPGKGLEWVAVIWNDGSKKYYAESVKGRFTISRDNSKNTVYLQMNSLRAEDTAVYYCARDEGVQMVFAMPDYGMDVWGQGTTVTVSS VL: SYELTQPPSVSVSPGQTASITCSGDKLGDKFACWYQQRPGQSPILVIYQDSKRPSGIPERFSGSNSGNTATLTIRGTQAMDEADYYCQAWDSSTAHYVFGTGTKVTVL",50% Neutralization ARPE,[9],< 0.01 µg/mL
same,50% Neutralization MRC-9,[9],> 2 µg/mL
same,90% Neutralization ARPE,[10],0.001 µg/mL
same,90% Neutralization MRC-9,[10],> 10 µg/mL
